Data published in paper PMC8202958 (Cell reports, 2021).
Positions count from the first letter of the chain named. Numbers in names are those of the source. Each block holds one binder with its values, some of them ahead of it.

Tests used:
[1] = molecular target: T1, MBP-Ecm25-N-term+RhoGAP (1–360aa) (S. cerevisiae, UniProt P32525 1-360); experiment: pull-down
T1 sequence (looked up): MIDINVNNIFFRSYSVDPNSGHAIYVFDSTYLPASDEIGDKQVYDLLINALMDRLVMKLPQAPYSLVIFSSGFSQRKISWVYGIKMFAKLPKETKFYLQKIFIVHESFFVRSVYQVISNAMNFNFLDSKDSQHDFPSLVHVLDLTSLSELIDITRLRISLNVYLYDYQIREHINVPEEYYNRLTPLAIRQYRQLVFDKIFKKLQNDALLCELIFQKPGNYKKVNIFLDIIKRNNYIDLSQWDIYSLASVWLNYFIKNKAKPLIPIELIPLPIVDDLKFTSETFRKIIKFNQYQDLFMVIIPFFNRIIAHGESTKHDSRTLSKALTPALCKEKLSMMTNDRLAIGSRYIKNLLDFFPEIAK

[2] = molecular target: T2, MBP-Ecm25-FL (full length, 1–599aa) (S. cerevisiae, UniProt P32525 1-599); experiment: pull-down
T2 sequence (looked up): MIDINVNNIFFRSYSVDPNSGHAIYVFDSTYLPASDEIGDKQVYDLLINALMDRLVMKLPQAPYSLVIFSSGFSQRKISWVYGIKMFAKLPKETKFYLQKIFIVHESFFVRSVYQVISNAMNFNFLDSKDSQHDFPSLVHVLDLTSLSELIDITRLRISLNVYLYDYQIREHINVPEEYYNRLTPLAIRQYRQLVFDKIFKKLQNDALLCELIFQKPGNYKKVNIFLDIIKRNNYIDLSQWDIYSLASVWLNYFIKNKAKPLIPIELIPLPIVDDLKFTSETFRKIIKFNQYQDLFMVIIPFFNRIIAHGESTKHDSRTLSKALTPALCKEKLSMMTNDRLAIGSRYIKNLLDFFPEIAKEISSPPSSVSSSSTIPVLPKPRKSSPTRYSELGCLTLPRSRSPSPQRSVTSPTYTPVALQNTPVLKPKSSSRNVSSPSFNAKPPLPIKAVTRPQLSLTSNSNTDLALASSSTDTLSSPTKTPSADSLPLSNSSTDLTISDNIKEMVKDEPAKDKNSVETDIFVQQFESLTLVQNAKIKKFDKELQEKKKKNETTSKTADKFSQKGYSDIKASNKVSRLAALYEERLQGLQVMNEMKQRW

B1: GST-Cdc42(T17N) (natural protein)
chain: not shown
binding result [1]: binds

B2: GST-Lsb3 (natural protein, S. cerevisiae, UniProt P43603 1-459, looked up)
chain: MGINNPIPRSLKSETKKAAKILASFVKPNQVFGADQVIPPDVLKRAKGLAIITILKAGFLFSGRAGSGVIVARLKDGTWSAPSAIAMAGAGAGGMVGIELTDFVFILNTQDAVKSFSEFGTITLGGNVSVSAGPLGRSAEAAASASAGGVAAVFAYSKSKGLFAGVSVEGSAIIERREANRKFYGDNCTAKMILSGRIRPPPAVDPLFRVLESRAFNYRPSNGGRGSFDDDEDDYYDDDDYYNDIPSSFSSTDASSTRPNTRSTRRRAQSGSRYTFDDDDDDDDYGTGYSRNSRLAPTNSGGSGGKLDDPSGASSYYASHRRSGTAQSRARSSRNRWADDEYDDYDDDYESGYRRGNGRDRTKDREVDDLSNRFSKSRISSASTPQTSQGRFTAPTSPSTSSPKAVALYSFAGEESGDLPFRKGDVITILKKSDSQNDWWTGRVNGREGIFPANYVELV
binding result [2]: binds

B3: GST-Sla1(1–420aa, W41S) (domain or fragment, S. cerevisiae, UniProt P32790 1-420, looked up)
chain: MTVFLGIYRAVYAYEPQTPEELAIQEDDLLYLLQKSDIDDSWTVKKRVIGSDSEEPVGLVPSTYIEEAPVLKKVRAIYDYEQVQNADEELTFHENDVFDVFDDKDADWLLVKSTVSNEFGFIPGNYVEPENGSTSKQEQAPAAAEAPAATPAAAPASAAVLPTNFLPPPQHNDRARMMQSKEDQAPDEDEEGPPPAMPARPTATTETTDATAAAVRSRTRLSYSDNDNDDEEDDYYYNSNSNNVGNHEYNTEYHSWNVTEIEGRKKKKAKLSIGNNKINFIPQKGTPHEWSIDKLVSYDNEKKHMFLEFVDPYRSLELHTGNTTTCEEIMNIIGEYKGASRDPGLREVEMASKSKKRGIVQYDFMAESQDELTIKSGDKVYILDDKKSKDWWMCQLVDSGKSGLVPAQFIEPVRDKKHTE
binding result [2]: binds

The remaining lines, values ahead:

binding result [2]: binds
B4: GST-Sla1(1–420aa, W108S) (domain or fragment, S. cerevisiae, UniProt P32790 1-420, looked up)
chain: B3 chain with S41W, W108S

binding result [1]: binds
B5: GST-Cdc42 (natural protein)
chain: not shown

binding result [1]: binds
B6: GST-Cdc42(Q61L) (natural protein)
chain: not shown

binding result [2]: binds
B7: GST-Ysc84 (natural protein, S. cerevisiae, UniProt P32793 1-468, looked up)
chain: MGINNPIPRSLKSETKKAAKVLRSFVKPNQVFGADQVIPPYVLKRAKGLAIITVLKAGFLFSGRAGSGVIVARLKDGTWSAPSAIAMAGAGAGGMVGVELTDFVFILNSEEAVRSFSEFGTITLGGNVSVSAGPLGRSAEAAASASTGGVSAVFAYSKSKGLFAGVSVEGSAILERREANRKFYGDNCTSKMILSGRVKVPPAADPLLRILESRAFNFTRHDHDDNASGDDFYDDGQYSDNTSHYYDDIPDSFDSTDESSTRPNTRSSRRRGMSLGSRSRYDDDYDDDGYGRGRGYGDFDSEDEDYDYGRSPNRNSSRNRGPQIDRGTKPRANTRWEDDLYDRDTEYSRPNHSGRDYDNTRGNRRGYGRERGYSLGHGPTHPSNMSNVDDLSHKMSKTGLGNESTATNSATPTAVALYNFAGEQPGDLAFKKGDVITILKKSDSQNDWWTGRTNGKEGIFPANYVRVS
